We go through seven substances from article PMC6378967.

By Kd is commonly meant the free concentration of one partner at which half of the binding sites on the other are occupied at equilibrium, for simple one-to-one binding. Low readings indicate higher affinity, high ones lower affinity. In general, koff refers to a measure of how fast the partners let go of each other. A higher koff goes with a short-lived complex. A word on the kon: it is the rate constant with which the complex forms. High values mean faster complex formation, low ones slower complex formation.

In test [1] the target is WT human renin (human) (UniProt P00797).
Chain of WT human renin (human) (P00797 67-406): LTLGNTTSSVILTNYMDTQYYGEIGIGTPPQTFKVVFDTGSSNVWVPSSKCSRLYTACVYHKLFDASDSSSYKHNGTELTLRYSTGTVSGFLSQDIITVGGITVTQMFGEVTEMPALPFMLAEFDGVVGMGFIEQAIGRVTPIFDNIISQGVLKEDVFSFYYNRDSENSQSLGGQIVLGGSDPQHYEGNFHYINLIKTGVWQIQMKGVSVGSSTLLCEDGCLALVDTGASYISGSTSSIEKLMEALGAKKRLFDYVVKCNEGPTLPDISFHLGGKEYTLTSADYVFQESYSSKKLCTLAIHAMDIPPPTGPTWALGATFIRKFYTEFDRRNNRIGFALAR
For test [2] the target is unchanged. This is another data set of the same source.
For test [3], the target named is biotinylated renin D226A mutant (human). The test can be described thus: BLI; FortéBio Octet Red96; biotinylated renin D226A (2.5 μg/ml) loaded on streptavidin biosensors; 2-fold dilutions of AGT in 10 mM Tris, pH 7.4, 0.15 M NaCl, 1% BSA; 1:1 binding model, global fit; KD = koff/kon; three independent assays.

In the case of “spent AGT (human AGT without the N-terminal 10-residue angiotensin I peptide) (domain or fragment)”, the inhibition of renin cleavage of an AGT fusion protein (intact AGT 1.1 μM) by increasing amounts of spent AGT (product inhibition; blocks renin with intact AGT) in test [1] came to 0.65 µM.

Turning to human AGT R83H (natural protein), in test [2], the Km of cleavage of AGT by WT human renin (released Ang I quantified by immunoassay) amounted to 1.42 µM, the kcat of cleavage of AGT by WT human renin (released Ang I quantified by immunoassay) amounted to 0.2 s⁻¹ and the kcat/Km of cleavage of AGT by WT human renin (released Ang I quantified by immunoassay) came out at 140000 M⁻¹ s⁻¹. In test [3], this substance showed a Kd of 44.6 nM, a koff of 0.000606 s⁻¹ and a kon of 14000 M⁻¹ s⁻¹.

For the substance “fully glycosylated WT human angiotensinogen (AGT) (natural protein)”, in test [2], the Km of cleavage of AGT by WT human renin (released Ang I quantified by immunoassay) was 0.76 µM, the kcat of cleavage of AGT by WT human renin (released Ang I quantified by immunoassay) stood at 0.2 s⁻¹ and the kcat/Km of cleavage of AGT by WT human renin (released Ang I quantified by immunoassay) amounted to 250000 M⁻¹ s⁻¹.

In the case of “human AGT N14Q variant (natural protein)”, in test [2], the Km of cleavage of AGT by WT human renin (released Ang I quantified by immunoassay) stood at 0.56 µM, the kcat of cleavage of AGT by WT human renin (released Ang I quantified by immunoassay) is 0.35 s⁻¹ and the kcat/Km of cleavage of AGT by WT human renin (released Ang I quantified by immunoassay) is 640000 M⁻¹ s⁻¹. In test [3], this substance had a Kd of 5.8 nM, a koff of 0.000209 s⁻¹ and a kon of 36100 M⁻¹ s⁻¹.

Turning to “human AGT quadruple glycosylation mutant N14Q/N137Q/N271Q/N295Q (natural protein)”, in test [2], the Km of cleavage of AGT by WT human renin (released Ang I quantified by immunoassay) was 0.67 µM, the kcat of cleavage of AGT by WT human renin (released Ang I quantified by immunoassay) came to 0.44 s⁻¹ and the kcat/Km of cleavage of AGT by WT human renin (released Ang I quantified by immunoassay) was found to be 650000 M⁻¹ s⁻¹. Moreover, in test [3], the Kd was 1.2 nM, the koff was found to be 8.61e-05 s⁻¹ and the kon was 74600 M⁻¹ s⁻¹.

In the case of human AGT N334T (natural protein), in test [2], the Km of cleavage of AGT by WT human renin (released Ang I quantified by immunoassay) was found to be 0.76 µM, the kcat of cleavage of AGT by WT human renin (released Ang I quantified by immunoassay) was found to be 0.16 s⁻¹ and the kcat/Km of cleavage of AGT by WT human renin (released Ang I quantified by immunoassay) amounted to 220000 M⁻¹ s⁻¹. Also, in test [3], the Kd was 27.9 nM, the koff was 0.000418 s⁻¹ and the kon stood at 15000 M⁻¹ s⁻¹.

With human AGT N331D (natural protein), in test [2], the Km of cleavage of AGT by WT human renin (released Ang I quantified by immunoassay) is 2.56 µM, the kcat of cleavage of AGT by WT human renin (released Ang I quantified by immunoassay) was 0.14 s⁻¹ and the kcat/Km of cleavage of AGT by WT human renin (released Ang I quantified by immunoassay) was found to be 50000 M⁻¹ s⁻¹. Further, in test [3], the Kd was found to be 91.5 nM, the koff is 0.000296 s⁻¹ and the kon turned out to be 3210 M⁻¹ s⁻¹.
